Results as given in US20210052718A1.

Columns and labels:
[1] = biological target: FI-RSV (post F): formalin-inactivated whole RSV (respiratory syncytial virus) (UniProt P03420); assay: ELISA on coated virus preparation; grade +++ = OD 1-1.5
[2] = biological target: Split RSV37° C. (standard preparation of inactivated split RSV vaccine) (respiratory syncytial virus) (UniProt P03420); assay: ELISA on coated virus preparation; grade +++++ = OD 2-2.5
[3] = biological target: Live RSV (A2 strain) (respiratory syncytial virus A2 strain) (UniProt P03420); assay: ELISA on coated virus; grade +++ = OD 1-1.5
Chain of Live RSV (A2 strain) (respiratory syncytial virus A2 strain) (P03420 26-574): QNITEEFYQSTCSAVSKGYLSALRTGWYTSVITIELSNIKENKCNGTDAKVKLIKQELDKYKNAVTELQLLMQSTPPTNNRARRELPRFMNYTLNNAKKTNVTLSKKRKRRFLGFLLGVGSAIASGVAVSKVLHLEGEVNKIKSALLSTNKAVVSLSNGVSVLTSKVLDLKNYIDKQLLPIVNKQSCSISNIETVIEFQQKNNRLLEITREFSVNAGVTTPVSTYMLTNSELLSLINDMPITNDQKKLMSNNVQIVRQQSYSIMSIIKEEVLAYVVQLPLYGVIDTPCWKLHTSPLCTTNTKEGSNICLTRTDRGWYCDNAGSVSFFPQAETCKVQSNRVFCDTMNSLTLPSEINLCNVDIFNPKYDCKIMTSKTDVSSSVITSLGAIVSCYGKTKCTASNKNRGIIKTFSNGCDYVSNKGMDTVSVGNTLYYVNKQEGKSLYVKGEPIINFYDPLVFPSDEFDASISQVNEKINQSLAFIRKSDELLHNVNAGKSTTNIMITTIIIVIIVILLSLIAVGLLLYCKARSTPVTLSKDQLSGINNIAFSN

[4] = biological target: Split RSV4° C. (inactivated at low temperature (4° C.) and split) (respiratory syncytial virus) (UniProt P03420); assay: ELISA on coated virus preparation; grade ++++++ = OD >2.5
Chain of Split RSV4° C. (inactivated at low temperature (4° C.) and split) (respiratory syncytial virus) (P03420 26-574): as above

Chain of UniProt P03420 (P03420 26-574): as above
Chain of Split RSV37° C. (standard preparation of inactivated split RSV vaccine) (respiratory syncytial virus) (P03420 26-574): as above

Substance: palivizumab (antibody)
- ELISA OD [1]: 1 to 1.5 od
- ELISA OD [2]: 2 to 2.5 od
- ELISA OD [3]: 1 to 1.5 od
- ELISA OD [4]: > 2.5 od
